Patent US20180044393A1 (INSERM INSTITUT NATIONAL DE LA SANT ET DE LA RECHERCHE M …, published 2018)

How the values were obtained:
[1] = target: T1, Orexin receptor-1 (human OX1R, wild type) stably expressed in CHO-S cells (human, UniProt O43613 1-425); assay: competitive inhibition of 125I-OxA binding on CHO-S cells expressing human OX1R
T1 construct: Full-length OX1R cDNA fused at the C-terminus to YFP; also called wt-OX1R; CHO-S-OX1R; not shown: YFP from vector pEYFP-N2 fused at the C-terminus
T1 sequence: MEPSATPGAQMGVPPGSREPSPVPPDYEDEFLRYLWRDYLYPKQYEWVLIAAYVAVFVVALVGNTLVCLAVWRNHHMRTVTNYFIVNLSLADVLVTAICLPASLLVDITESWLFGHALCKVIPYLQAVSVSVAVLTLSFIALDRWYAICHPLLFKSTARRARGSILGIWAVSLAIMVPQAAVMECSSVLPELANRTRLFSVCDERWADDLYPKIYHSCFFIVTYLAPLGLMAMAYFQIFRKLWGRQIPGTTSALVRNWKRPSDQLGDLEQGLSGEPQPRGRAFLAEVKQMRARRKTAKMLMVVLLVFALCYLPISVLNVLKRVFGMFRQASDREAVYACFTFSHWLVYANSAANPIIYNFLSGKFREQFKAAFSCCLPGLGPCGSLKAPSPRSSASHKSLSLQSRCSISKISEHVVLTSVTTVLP
Experimental: CHO—S cells expressing recombinant native or mutated OX1R were grown as previously described (El Firar et al., 2009) and maintained at 37° C. in a humidified 5% CO₂/air incubator. ¹²⁵I-orexia-A (74 TBq/mmol) was prepared as previously described (El Firar et al., 2009). […] Free peptides were removed by 2 cell washing cycles with PBS. […] Data were analyzed using the GraphPad software (http://www.graphpad.com).

[2] = target: T1, Orexin receptor-1 (human OX1R, wild …); assay: cell-based or functional assay

- IC50 [1]: 388 nM
- Apoptosis induction EC50 [2]: 2180 nM
- IP3 production EC50 [2]: 1510 nM
B1: OxB 7-28 (peptide)
peptide: LQGRLQRLLQASGNHAAGILTM
notes: synthetic deletion mutant of OxB; also called deletion of the first six residues of OxB
